The target in the experiment is Cdh1 (UniProt Q9R1K5). The experiment is described as follows: Flag IP of Cdh1, HA-FMRP blot. The settings on record: reference: wild type FMRP; sites S499.

Consider FMRP (from UniProt P35922) S499A, for which the “binding against the reference” value is on record as “stronger”.

For the origin of these results see article PMC4492466.
